In patent CN113912728A (QYUNS THERAPEUTICS CO LTD, dated 2022):

Legend:
[1] = molecular target: T1, 人白介素-33 (human interleukin-33) (human, UniProt O95760 112-270); assay: SPR, Biacore T200, 25℃, antibody captured on Protein A chip, IL-33 as analyte, 1:1 model
T1 sequence: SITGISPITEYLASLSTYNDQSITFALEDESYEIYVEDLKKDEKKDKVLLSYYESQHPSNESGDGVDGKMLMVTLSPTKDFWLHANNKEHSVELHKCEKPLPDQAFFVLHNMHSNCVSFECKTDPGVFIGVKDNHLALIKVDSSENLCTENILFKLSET

[2] = molecular target: T1, 人白介素-33 (human interleukin-33); assay: cell-based or functional assay
[3] = molecular target: 天然人白介素-33 (natural human interleukin-33 from HFL-1 cell lysate) (human) (UniProt O95760); assay: cell-based or functional assay
[4] = molecular target: T2, 天然人白介素-33 (natural human interleukin-33 from HFL-1 cell lysate) (human, UniProt O95760 1-270, limits assumed); assay: cell-based or functional assay
T2 sequence (looked up): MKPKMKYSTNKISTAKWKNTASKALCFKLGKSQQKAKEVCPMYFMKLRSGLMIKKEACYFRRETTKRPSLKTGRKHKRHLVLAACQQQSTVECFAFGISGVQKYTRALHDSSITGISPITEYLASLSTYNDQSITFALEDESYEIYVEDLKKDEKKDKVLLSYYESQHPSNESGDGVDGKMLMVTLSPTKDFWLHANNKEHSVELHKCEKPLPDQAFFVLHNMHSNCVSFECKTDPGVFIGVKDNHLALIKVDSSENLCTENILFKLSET

Molecule	Kd [1]	koff [1]	kon [1]	中和人白介素-33诱导人全血释放IFN-γ, IC50 [2]	中和人白介素-33诱导的KU812细胞释放IL-5, IC50 [2]	抑制重组人白介素-33诱导HEK Blue IL-33细胞中NF-κB/AP-1信号转导 (SEAP reporter), IC50 [2]	抑制天然人白介素-33诱导HEK Blue IL-33细胞中NF-κB/AP-1信号转导 (SEAP reporter), IC50 [3]	抑制天然人白介素-33诱导HEK Blue IL-33细胞中NF-κB/AP-1信号转导 (SEAP reporter), IC50 [4]
Etokimab/ANB020 (antibody)	0.869 nM	0.000369 s⁻¹	424000 M⁻¹ s⁻¹	31.9 ng/mL	44 ng/mL	6.05 ng/mL	2.5 ng/mL	–
QX007N(HZD78-70) (antibody, V domains shown) VH: EVQLVESGGGLVQPGGSLRLSCAASGFSLSSYHMIWVRQAPGKGLEWVGVIYPNSNIYYATWAKGRFTISRDNSKNTLYLQMNSLRAEDTAVYYCARTIYVHVYSALSIWGQGTLVTVSS VL: AFQMTQSPSSVSASVGDRVTITCQASESVLNEVSWYQQKPGKAPKLLIYFASKLASGVPSRFSGSGSGTDFTLTISSLQPEDFATYYCQQDWSMDNIDNAFGGGTKVEIKR	1.23 nM	0.000481 s⁻¹	392000 M⁻¹ s⁻¹	16 ng/mL	5.87 ng/mL	6.67 ng/mL	–	3.91 ng/mL
